Measurements from PMC7458312, “Anthrax toxin component, Protective Antigen, protects insects from bacterial infections” (PLoS Pathogens, 2020).

Columns and labels:
[1] = target: T1, human recombinant PGRP-S (also called PGLYRP1) (human, UniProt O75594 22-196); experiment: ELISA; […]) or 5% BSA ([…]; details: both partners purified
T1 construct: also called PRGP-S; human PGRP-SA ortholog
T1 sequence (looked up): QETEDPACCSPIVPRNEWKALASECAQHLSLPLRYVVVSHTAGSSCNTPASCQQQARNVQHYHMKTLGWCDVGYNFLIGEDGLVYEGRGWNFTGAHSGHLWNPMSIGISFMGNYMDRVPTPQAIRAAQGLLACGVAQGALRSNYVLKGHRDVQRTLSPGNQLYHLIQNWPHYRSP

[2] = target: T2, Drosophila melanogaster peptidoglycan-recognition protein-SA (PGRP-SA), T7-tagged (D. melanogaster, UniProt Q9VYX7 27-203); experiment: ELISA; […]) or 5% BSA ([…]; details: both partners purified
T2 construct: also called PRGP-SA
T2 sequence (looked up): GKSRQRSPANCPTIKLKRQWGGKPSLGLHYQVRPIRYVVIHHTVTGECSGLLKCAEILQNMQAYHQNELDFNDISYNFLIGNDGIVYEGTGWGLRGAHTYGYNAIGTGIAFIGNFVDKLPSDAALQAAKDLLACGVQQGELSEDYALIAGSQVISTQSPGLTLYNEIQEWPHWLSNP

B1: PA20, 20 kDa subunit of anthrax toxin Protective Antigen (PA83) (domain or fragment)
chain: EVKQENRLLNESESSSQGLLGYYFSDLNFQAPMVVTSSTTGDLSIPSSELENIPSENQYFQSAIWSGFIKVKKSDEYTFATSADNHVTMWVDDQEVINKASNSNKIRLEKGRLYQIKIQYQRENPTEKGLDFKLYWTDSQNKKEVISSDNLQLPELKQKSSNS
notes: also called pelB-PA20-6His
[1]
  binding result: binds
[2]
  binding result: binds
